Consider seven substances from patent publication US20250320281A1.

Common to all, as to test: cell-based or functional assay
The target in assay [1] is HIV-1 JR-FL Env E168K (HIV-1 JR-FL).
The target of assay [2] is HIV-1 Env of isolate REJ04541 (clade B pseudovirus) (HIV-1).
In assay [3] the target is HIV-1 Env of isolate AC10 (clade B pseudovirus) (HIV-1).
Assay [4] addresses HIV-1 Env of isolate PVO.4 (clade B pseudovirus) (HIV-1).
Assay [5] concerns the target HIV-1 94UG103 envelope glycoprotein (Env) on pseudovirus (HIV-1 isolate 94UG103 (clade A)).
Assay [6] addresses HIV-1 92TH021 envelope glycoprotein (Env) on pseudovirus (HIV-1 isolate 92TH021 (clade AE)).
Assay [7] concerns the target aMLV envelope protein on pseudovirus (negative control virus) (aMLV).
For assay [8], the target named is HIV-1 Env of isolate 94UG103 (pseudovirus) (HIV-1).
Assay [9] concerns the target HIV-1 92UG024 Env (HIV-1).
The target of the next assay is HIV-1 JRFL Env (HIV-1).
The target of assay [10] is HIV-1 93IN905 Env (HIV-1).
The target in a further assay is HIV-1 APV13 Env (HIV-1).
Assay [11] deals with HIV-1 MGRM-D-001 Env (HIV-1).
For assay [12], the target named is HIV-1 MGRM-C-026 Env (pseudovirus) (HIV-1 isolate MGRM-C-026 (clade C)).
Assay [13] addresses HIV-1 MGRM-C-028 Env (pseudovirus) (HIV-1 isolate MGRM-C-028 (clade C)).
Assay [14] concerns the target HIV-1 94UG103 Env (pseudovirus) (HIV-1 isolate 94UG103 (clade A)).
Assay [15] addresses HIV-1 92RW020 Env (pseudovirus) (HIV-1 isolate 92RW020 (clade A)).
Assay [16] addresses HIV-1 92UG005 Env (pseudovirus) (HIV-1 isolate 92UG005 (clade D)).
Assay [17] addresses HIV-1 MGRM-AG-005 Env (pseudovirus) (HIV-1 isolate MGRM-AG-005 (clade AG)).
For assay [18], the target named is HIV-1 Env of pseudovirus MGRM-A-004 (subtype A) (HIV-1).
Assay [19] addresses HIV-1 Env of isolate JRFL (HIV-1).
Assay [20] addresses HIV-1 Env of isolate MGRM-F1-022 (clade F pseudovirus) (HIV-1).
Assay [21] concerns the target HIV-1 Env of isolate MG RM-D-022 (clade D), on pseudovirus (HIV-1).
In assay [22] the target is HIV-1 Env of isolate MGRM-Chronic-B-003 (HIV-1).
In assay [23] the target is HIV-1 Env of isolate MG RM-D-001 (clade D), on pseudovirus (HIV-1).
Assay [24] addresses HIV-1 Env of isolate MGRM-F1-021 (clade F pseudovirus) (HIV-1).
In assay [25] the target is HIV-1 Env of pseudovirus MGRM-A-001 (subtype A) (HIV-1).
Assay [26] deals with HIV-1 Env of pseudovirus MGRM-AG-003 (subtype AG) (HIV-1).
Assay [27] addresses HIV-1 Env of isolate MG RM-D-026 (HIV-1).
Assay [28] addresses HIV-1 Env of pseudovirus MGRM-AG-009 (subtype AG) (HIV-1).
For assay [29], the target named is HIV-1 Env of isolate MGRM-F1-012 (HIV-1).
For assay [30], the target named is HIV-1 Env of isolate MGRM-F1-008 (HIV-1).
Assay [31] has as its target HIV-1 Env of pseudovirus MGRM-AG-001 (subtype AG) (HIV-1).
Assay [32] deals with HIV-1 Env of pseudovirus MGRM-AG-008 (subtype AG) (HIV-1).
In assay [33] the target is HIV-1 Env of isolate MG RM-D-024 (HIV-1).

As a reminder, the IC50 is the point on the concentration scale where inhibition reaches its midpoint. High values mean weaker potency, low ones greater potency.

Sequence of 1443_C16 (PG16) (TCN-116) (antibody) (VH): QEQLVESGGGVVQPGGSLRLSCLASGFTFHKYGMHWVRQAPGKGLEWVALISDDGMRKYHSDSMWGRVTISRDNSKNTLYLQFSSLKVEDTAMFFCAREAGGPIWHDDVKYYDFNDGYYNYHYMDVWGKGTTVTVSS
Sequence of 1443_C16 (PG16) (TCN-116) (antibody) (VL): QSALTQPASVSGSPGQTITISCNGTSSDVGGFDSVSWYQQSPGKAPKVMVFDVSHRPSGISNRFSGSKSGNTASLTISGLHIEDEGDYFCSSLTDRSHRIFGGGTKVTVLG

1443_C16 (PG16) (TCN-116) (antibody) had an IC50 (ug/ml), pseudovirus neutralization, TZM-bl assay in [1] of 0.006 µg/mL. Also, the IC50 (neutralization, TZM-bl pseudovirus assay) in assay [2] was less than 0.01 µg/mL; in assay [3], less than 0.01 µg/mL; in [4] it was 12.3 µg/mL.
As for 1496_C09 (PG9) (TCN-109) (antibody), in assay [5], the neutralization IC50 was 0.31 µg/mL, the neutralization IC80 came to 1.95 µg/mL and the neutralization IC90 is 5.54 µg/mL. In [6], this substance returned a neutralization IC50 of 0.103 µg/mL, a neutralization IC80 of 0.448 µg/mL, a neutralization IC90 of 1.07 µg/mL and a neutralization IC95 of 2.43 µg/mL.
For 4858_P08 (PGT-123) (antibody), in [7], the neutralization IC50 was more than 10 µg/mL, the neutralization IC80 is more than 10 µg/mL, the neutralization IC90 is more than 10 µg/mL and the neutralization IC95 was more than 10 µg/mL. In addition, in [8], the Primary Neutralization Index (B cell culture supernatant) is 1.1.
For 4877_D15 (PGT-122) (antibody), the Neutralization by PGT-122, IC50 is more than 10 µg/mL in assay [9]; 0.0471 µg/mL in the assay with HIV-1 JRFL Env (HIV-1); 0.0138 µg/mL in assay [10]; 0.992 µg/mL with HIV-1 APV13 Env (HIV-1); 0.867 µg/mL in assay [11]. Besides, the Neutralization by PGT-122, IC80 in [9] was more than 10 µg/mL; in the assay with HIV-1 JRFL Env (HIV-1) it was 0.166 µg/mL; in assay [10], 0.0505 µg/mL; in the assay with HIV-1 APV13 Env (HIV-1), 4.14 µg/mL; in [11], 4.48 µg/mL. The Neutralization by PGT-122, IC90 was more than 10 µg/mL in assay [9]; 0.342 µg/mL with HIV-1 JRFL Env (HIV-1); 0.108 µg/mL in assay [10]; 8.6 µg/mL with HIV-1 APV13 Env (HIV-1); more than 10 µg/mL in [11]. Also, the Neutralization by PGT-122, IC95 in assay [9] is more than 10 µg/mL; with HIV-1 JRFL Env (HIV-1), 0.659 µg/mL; in [10], 0.217 µg/mL; in the assay with HIV-1 APV13 Env (HIV-1), more than 10 µg/mL; in assay [11], more than 10 µg/mL.
Turning to 5123_A06 (PGT-125) (antibody), the Neutralization by PGT-125, IC50 was 0.0106 µg/mL in assay [12]; 5.78 µg/mL in assay [13]; 0.0124 µg/mL in [14]; 0.0028 µg/mL in assay [15]; more than 10 µg/mL in assay [16]; more than 10 µg/mL in assay [17]. Also, the Neutralization by PGT-125, IC80 was 0.035 µg/mL in assay [12]; more than 10 µg/mL in assay [13]; 0.0373 µg/mL in assay [14]; 0.011 µg/mL in assay [15]; more than 10 µg/mL in assay [16]; more than 10 µg/mL in [17]. Further, the Neutralization by PGT-125, IC90 in assay [12] was 0.0705 µg/mL; in assay [13] it was more than 10 µg/mL; in [14] it was 0.071 µg/mL; in [15], 0.0248 µg/mL; in [16], more than 10 µg/mL; in [17], more than 10 µg/mL. Also, the Neutralization by PGT-125, IC95 in [12] is 0.134 µg/mL; in assay [13] it was more than 10 µg/mL; in [14] it was 0.129 µg/mL; in [15], 0.0526 µg/mL; in assay [16], more than 10 µg/mL; in assay [17], more than 10 µg/mL.
With PGV04 (antibody), the IC50, pseudovirus neutralization in assay [18] was 0.175 µg/mL; in assay [25] it was 6.78 µg/mL. The IC50 (µg/mL), pseudovirus neutralization in assay [19] was 0.032 µg/mL; in assay [20], 0.072 µg/mL; in assay [21], more than 50 µg/mL; in [22] it was 0.258 µg/mL; in assay [23], more than 50 µg/mL; in assay [24], 0.031 µg/mL.
Take VRC01 (antibody): the IC50, pseudovirus neutralization in assay [26] was 0.043 µg/mL; in assay [28], more than 50 µg/mL; in [31] it was 0.228 µg/mL; in [32], 0.124 µg/mL. Besides, the IC50 in [27] came out at 0.435 µg/mL; in [29] it was 0.488 µg/mL; in assay [30], 1.11 µg/mL; in [33], 0.366 µg/mL.
